Broadly, the Kd is the free concentration of one partner at which half of the binding sites on the other are occupied at equilibrium, for simple one-to-one binding. A lower Kd goes with tighter binding. In general, IC50 refers to the concentration needed to halve the response being measured.

Numbering of substitutions follows the chain as printed.

These results are taken from patent publication US20150266969A1.

The chains are these.
B1: PEP2-42 Fc (Fc fusion, not shown: a dimerising Fc or GST)
chain: EVQLLESGGGLVQPGGSLRLSCAASGFTFDNVEMSWVRQAPGKGLEWVSSIGSKGEDTYYADSVKGRFTISRDNSKNTLYLQMNSLRAEDTAVYYCAQTVNVPEPAFAYWGQGTLVTVSS
B2: PEP2-42-1 Fc (Fc fusion, not shown: a dimerising Fc or GST)
chain: B1 chain with L4M, S53T, D57Y, L86M, S119L
B3: PEP2-2-2 Fc (Fc fusion, not shown: a dimerising Fc or GST)
chain: EVQLLESGGGLVQPGGSLRLSCAASGFTFRNHDMGWVRQAPGKGLEWVSAISGSGGSTYYADSVKGRFTISRDNSKNTLYLQMNSLRAEDTAVYYCAEPKPMDTEFDYRSQGTLVTVSS
B4: PEP2-472-1 Fc (Fc fusion, not shown: a dimerising Fc or GST)
chain: B3 chain with F27Y, R30P, N31M, H32K, S57G
B5: PEP2-2-1-1 Fc (Fc fusion, not shown: a dimerising Fc or GST)
chain: B3 chain with Q111P
B6: PEP2-247-1 Fc (Fc fusion, not shown: a dimerising Fc or GST)
chain: B3 chain with S57G, K100S, P101H, M102F, T104R, E105P
B7: PEP2-47 Fc (Fc fusion, not shown: a dimerising Fc or GST)
chain: B3 chain with R30P, N31M, H32K, K100S, P101H, M102F, T104R, E105P, R109W, S110G
B8: PEP2-47-1 Fc (Fc fusion, not shown: a dimerising Fc or GST)
chain: B3 chain with F27Y, R30P, N31M, H32K, S57G, K100S, P101H, M102F, T104R, E105P
B9: PEP2-247-2 Fc (Fc fusion, not shown: a dimerising Fc or GST)
chain: B3 chain with D62N, K100S, P101H, M102F, T104R, E105P

Sequence of PEP2-4 dAb (chain, as listed by the source): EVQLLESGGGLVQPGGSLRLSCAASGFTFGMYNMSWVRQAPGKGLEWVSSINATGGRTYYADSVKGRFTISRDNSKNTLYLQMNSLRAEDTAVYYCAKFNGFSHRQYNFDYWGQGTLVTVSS

The target of the first experiment is E200 peptide. As to the kind of experiment: Biacore, PEP2-Fc on E200. (SPR reads the build-up and loss of mass on a sensor chip optically.)
The molecule B1 gave a Kd of 5.5 nM.

On to B2, for which the Kd turned out to be 0.12 nM. Turning to B3, the dissociation constant (Kd) is 0.1 nM.

As for B4, the dissociation constant Kd worked out at 0.09 nM.

With B5, the Kd was found to be 0.09 nM. Still for that read-out and setting: with B6 the figure was 0.19 nM; with B7, 7.5 nM; with B8, 0.11 nM. Molecule B9 gave a Kd of 0.45 nM.

The next experiment concerns the target PEP2-4 dAb. Nature of the experiment: immunohistochemistry on cervical cancer sections, 20 nM PEP2-4 with added free peptide; estimate between no inhibition at 10 uM and clear inhibition at 100 uM.
On to GHNYTTRNILPGLNITC (modifications not checked) [E200 peptide], for which the IC50 was 40000 to 50000 nM.
